1 protein from PMC6860424, “Structural analysis of the manganese transport regulator MntR from Bacillus halodurans in apo and manganese bound forms” (PLoS ONE, 2019) can be followed below.

This series concerns the molecule itself. Nature of the series: crystal structure; apo BhMntR; sitting-drop vapor diffusion at 296 K, 0.1 M sodium/potassium phosphate pH 6.2, 0.4 M magnesium formate; 2.3 Å; two subunits in the asymmetric unit.

What is called stoichiometry N is the number of molecules, sites or subunits per partner or assembly.

B1: manganese transport regulator MntR from Bacillus halodurans (natural protein, UniProt Q9K943 1-139, looked up)
chain: MPTPSMEDYLERIYLLIEEKGYARVSDIAEALEVHPSSVTKMVQKLDKSDYLVYERYRGLILTAKGKKIGKRLVYRHDLLEDFLKMIGVDSDHIYEDVEGIEHHLSWDAIDRIGDLVQYFQEDPSRLNDLREVQKKNEE
notes: MntR homologue BH2807 of Bacillus halodurans, a protein of 139 amino acids; gene amplified from genomic DNA into pET-28b(+) NdeI/XhoI; subunit described as residues 1-71 (domain 1) and 72-139 (domain 2); Homodimer in both crystal forms; also called BhMntR; BH2807; source: E. coli BL21(DE3) Star pLysS, purified (Ni IMAC, Superdex 200 gel filtration)
For B1, the “stoichiometry N” value stood at 2.
